Assay results taken from paper PMC11385703 (Structure(London, England:1993), 2024).
Substitutions are numbered along the chain they refer to.

Legend:
Conditions in all cases: both partners purified
biotinylated myotoxin II = biotinylated myotoxin II (Bothrops asper, UniProt P24605, biotin (EZ-Link NHS-PEG4-Biotin, 1:1.25 toxin:reagent molar ratio)); assay: BLI
myotoxin II = molecular target: T1, myotoxin II (Bothrops asper, UniProt P24605); assay: […] (1:20) in PBS pH 7.4 and pH 6, 1 h at room temperature
T1 construct: source: purified from the venom of B. asper (CM-Sephadex C25, RP-HPLC)

[1] = molecular target: T2, α-cobratoxin, biotinylated (Naja kaouthia, UniProt P01391, biotin (EZ-Link NHS-PEG4-Biotin, 1:1.25 toxin:biotinylation reagent molar ratio)); assay: BLI; […]) biosensors; […]; dissociation for 600 s in HEPES-MES pH 4.5; 25°C; 1:1 binding model, […]
[2] = molecular target: T2, α-cobratoxin, biotinylated; assay: BLI; […]) biosensors; […]; association in HEPES-MES pH 7.4 for 300 s, dissociation in HEPES-MES pH 5.5 for 600 s; 1:1 binding model, […]
[3] = molecular target: T2, α-cobratoxin, biotinylated; assay: BLI; […]) biosensors; […]; dissociation for 600 s in HEPES-MES pH 3.5; 25°C; 1:1 binding model, […]
[4] = molecular target: T2, α-cobratoxin, biotinylated; assay: BLI; […]) biosensors; […]; dissociation for 600 s in HEPES-MES pH 4.0; 25°C; 1:1 binding model, […]
[5] = molecular target: T2, α-cobratoxin, biotinylated; assay: BLI; […]) biosensors; […]; dissociation for 600 s in HEPES-MES pH 6.0; 25°C; 1:1 binding model, […]
[6] = molecular target: T2, α-cobratoxin, biotinylated; assay: BLI; […]) biosensors; […]; dissociation for 600 s in HEPES-MES pH 5.5; 25°C; 1:1 binding model, […]
[7] = molecular target: T2, α-cobratoxin, biotinylated; assay: BLI; […]) biosensors; […]; dissociation for 600 s in HEPES-MES pH 6.5; 25°C; 1:1 binding model, […]
[8] = molecular target: T2, α-cobratoxin, biotinylated; assay: BLI; […]) biosensors; […]; dissociation for 600 s in HEPES-MES pH 7.4; 25°C; 1:1 binding model, […]
[9] = molecular target: T2, α-cobratoxin, biotinylated; assay: BLI; […]) biosensors; […]; dissociation for 600 s in HEPES-MES pH 5.0; 25°C; 1:1 binding model, […]
[10] = molecular target: T3, biotinylated α-cobratoxin (Naja kaouthia, UniProt P01391); assay: BLI
T3 construct: source: bought: Latoxan, then biotinylated

α-cobratoxin = molecular target: T4, α-cobratoxin (Naja kaouthia, UniProt P01391); assay: SPR; […] (Biacore 8K, 25°C); […]; dissociation 300 s in running buffer of pH 7.4 or 5.5
T4 construct: source: bought: Latoxan

[11] = molecular target: T2, α-cobratoxin, biotinylated; assay: BLI; […]) biosensors; […]; association in HEPES-MES pH 7.4 for 300 s, dissociation in HEPES-MES pH 7.4 for 600 s; 1:1 binding model, […]

T2 sequence (P01391 whole entry): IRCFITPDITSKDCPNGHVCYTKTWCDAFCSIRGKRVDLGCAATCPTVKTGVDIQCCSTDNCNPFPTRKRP
biotinylated myotoxin II, sequence (P24605 17-137): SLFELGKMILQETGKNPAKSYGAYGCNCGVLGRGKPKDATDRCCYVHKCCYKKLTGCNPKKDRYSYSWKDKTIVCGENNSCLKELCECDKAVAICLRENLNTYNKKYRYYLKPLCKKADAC
T3 sequence (P01391 whole entry): as the sequence (P01391 whole entry) above
T1 sequence (P24605 17-137): as the sequence (P24605 17-137) above

B1: IgG: TPL0039_05_E02-YTE (antibody, V domains shown)
VH: QVQLLESGGGLVQPGRSLRLSCAASGFTFSSYGLHWVRQAPGKGLEWVAVISYDGSNKYYADSVKGRFTISRDNSKNTLYLQMNSLRAEDTAVYYCASTLQQLDAFDIWGQGTLVTVSS
VL: NFMLTQPHSVSESPGKTVTISCTRSSGSIASNYVQWYQQRPGTSPTIMIYEDNQRPSGVPDRFSGAIDSSSNSASLTISGLKTEDEADYYCQSYDSSSVVFGGGTKVTVL
notes: copies: 2 + 2
Biotinylated myotoxin II
  Kd: < 0.001 nM
  koff: < 1e-07 s⁻¹

B2: IgG: TPL0039_05_B04-YTE (antibody, V domains shown)
VH: EVQLLESGGGVVQPGRSLRLSCAASGFTFSSYGMHWVRQAPGKGLEWVAVISYDGSNKYYADSVKGRFTISRDNSKNTLYLQMNSLRAEDTAVYYCARVGENEAFDIWGQGTMVTVSS
VL: B1 VL with S31R, T43S, S44A, I47T, M48V, A66S, S98T, V107L
notes: also called IgG1 B04-YTE; source: CHO cells, transiently expressed, purified; copies: 2 + 2
Myotoxin II
  stoichiometry N: 2 antigen per IgG1

B3: IgG: TPL0039_05_B12-YTE (antibody, V domains shown)
VH: B2 VH with L5V, R98G, V99W, G100T, N102G, E103D, M113L
VL: B1 VL with T43S, S44A, T46S, I47T, M48V, Q54R, A66S, S70A, V107I
notes: copies: 2 + 2
Biotinylated myotoxin II
  Kd: < 0.001 nM

B4: 2554_01_D11 Fab (Fab, V domains shown)
VH: QVQLVQSGAEVKKPGSSVKVSCKASGGTFSSYAISWVRQAPGQGLEWMGGIIPIFGTANYAQKFQGRVTITADESTSTAYMELRSLRSDDTAVYYCARDNLGYCSGGSCYSDYYYYYMDVWGQGTLVTVSS
VL: NFMLTQPRSVSESPGKTVTISCTRSSGSIGSDYVHWYQQRPGSSPTTVIYEDNQRPSGVPDRFSGSIDSSSNSASLTISGLKTEDEADYYCQSYDRSNHEVVFGGGTKLTVL
[1]
  koff: 0.00065 s⁻¹
[2]
  Kd: 8.7 nM
  koff: 0.0004 s⁻¹
  kon: 46000 M⁻¹ s⁻¹
[3]
  koff: 0.0036 s⁻¹
[4]
  koff: 0.001 s⁻¹
[5]
  koff: 0.0003 s⁻¹
[6]
  koff: 0.00039 s⁻¹
[7]
  koff: 0.00027 s⁻¹
[8]
  koff: 0.00026 s⁻¹
[9]
  koff: 0.00043 s⁻¹

B5: Fab: 2554_01_D11 (Fab, V domains shown)
VH: B4 VH
VL: B4 VL
notes: also called Fab D11; source: purified
[10]
  binding result: binds

B6: IgG: 2555_01_A01-YTE (antibody, V domains shown)
VH: B4 VH
VL: SYELTQPPSVSVAPGRTATITCEGDNIGQQIVHWYQQKPGQAPVAVISSDSDRPSGIPERFSGSNSGNTATLTISRVEAGDEADYYCQVWDSGSDHVVFGGGTKVTVL
notes: also called IgG1 A01; source: CHO cells, transiently expressed, purified; copies: 2 + 2
α-cobratoxin
  binding result: binds

B7: Fab: 2555_01_A01 (Fab, V domains shown)
VH: B4 VH
VL: B6 VL
notes: also called Fab A01; source: purified
[10]
  binding result: binds

B8: TPL0197_01_C08 Fab (Fab, V domains shown)
VH: EVQLVQSGAEVKKPGASVKVSCKASGYTFTSYGISWVRQAPGQGLEWMGWISAYNGNTNYAQKLQGRVTMTTDTSTSTAYMELRSLRSDDTAVYYCAREEYCSSTSCYVGNYYGMDVWGQGTLVTVSS
VL: DIQMTQSPSSLSASVGDRVTITCQASQDISNYLNWYQQKPGKAPKLLIYAASSLESGVPSRFSGSGSGTEFTLTITNLQVDDFATYYCQRYDSNFAFGQGTKVEIK
[1]
  koff: 0.054 s⁻¹
[2]
  koff: 0.0058 s⁻¹
  kon: 3800 M⁻¹ s⁻¹
[3]
  koff: 1.2 s⁻¹
[4]
  koff: 0.28 s⁻¹
[5]
  koff: 0.0015 s⁻¹
[6]
  koff: 0.0041 s⁻¹
[7]
  koff: 0.00077 s⁻¹
[11]
  Kd: 64 nM
  koff: 0.00085 s⁻¹
  kon: 11000 M⁻¹ s⁻¹
[8]
  koff: 0.00069 s⁻¹
[9]
  koff: 0.0073 s⁻¹

B9: IgG: TPL0197_01_C08-YTE (antibody, V domains shown)
VH: B8 VH
VL: B8 VL
notes: also called IgG1 C08; source: CHO cells, transiently expressed, purified; copies: 2 + 2
α-cobratoxin
  binding result: binds
